Experimental data published in a protein production outcome set (Wang et al. 2014).

Assay: label from the status in PepcDB records
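Note: failed if final PepcDB status was selected cloned or expressed and not failed if soluble or beyond.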

| Sequence | protein production |
| --- | --- |
| MQSINFRTARGNLSEVLNNVEAGEEVEITRRGREPAVIVSKATFEAYKKAALDAEFASLFDTLDSTNKELVNRLEHHHHHH | not failed |
| NTDYYGLDYALSFNQVEIEEKRIVIAGSGGIARTVIRYMLDHGAHRVDVLTRNAQNARRNLDIPGIGLHENIDEDYDIYVNCTPLGTLGDGDPFSTVDFRSGRTGIDLVYNPPDTPFLKRMRNAGGRTVSGLDVFIGQGLRTLELVFGIRPDSIFREYAVEALNEIR | failed |
| MTSQITANGTQRLPEPVSEHEAVPPPPPTAAGRPRPPTSQLFSRGNLASSRATGGDKSGLARPSTAVRAVGYAANCESAHQRFEQFFLEKAKQQTLSSRAAVDAIKDVNPQMKYKNLEEKIVKLLESSIVLAWQGSPNKLLNLDTKLAEALSKAKEAFSLDRTLHQFRDQHGENVYHNFDLTYAQYERSEMHIEALNTYSIMAKNKMFPHVNQLKLNMGNIYYSMGIYQKAVKMYRMALDSVPKSLSQLRLKIRENIGILFIRMGSYSDAASSFEFIMTERANIRSSIHLLLCYFALGDVEKVKLAFRRLCDVQTEAIESDMESETNIIKLQQQAEPIQQIGETDGYQSLNNEPVTGSVIKAEGGGKLNETVKFAATVKHRYVVQALKKDELAVYRNERRNAVKRSITMIVDLISPFIEDNYNDGYNWCIEIIKTSNLAWLANELELNKALVYLRQNDVHQAIETLQMYDRKSEGSMTASALTNLSFIYIKMASHCVNQLHEIGSLKNNAPGLINAGIVELGSHNLILASERFEGALQLQPMNFEARYNLGLVALAQNDYELAEERFELLKEQLMLPSSVQHSHVFYQLAKLQERRLESGLISNFTPGAALQAYLQVVGISASDIDSRLFEKVGSLYEQIQDHQEANQYYNEAYRINMSDIGIASSIGSYYIKLQATERALFYYERAVLADPNDPNLMLRIASCFRNSYLPTKQYLGLFQKIHARFPDNLTCIRALMQVTKSLELGDLYERYASEYTRLQSQQQERQSEQRYQQQRFPSAAKFTIRQSNEEHLKEVGENFNSVVHTQSPYTSILQFDPLGPPAERPKTGRPLQSRDDVDDDAEMNPESLLPI | failed |
| MHLATLASGSSGNSIVVGHEKRNFLVDCGISLKATLHNLAILDIAPSEIEGIFITHEHSDHIKGVGAVARKLKIPIYASAKIWDELNPSIGKLKDEQRVVVKDAFTCAGLRVRVFPTSHDSQESFGVRVEVEQPVKGRSRAIGIATDTGIVTEEMHQALKGCDALVVEANHDREMLWQGGYPWYLKKRISGNYGHLENSQLAEGLLQWIEGNTQRIVLAHLSDENNTPETALSTILRILKESRVAKENRDLRLRVAPRYTPHELIVLEEY | failed |
| LVADASPFAMLEQAPDDLISHYDLTGRLLRVSPAWSRIIGGSVAEAAGRRTWDFIAPEDHPAVAAYYADLLREGAAPSSRLRMRVRHVAGDIRVLESRPMPIRNAEGVVTGFVDIARDITEQIETERRYQLALAQAHEA | failed |
| MWHSIEQAISVETGKSFYISEKKEISTRPASSSSFTCSYDNKEPPPNLSFKITDGHRSYFLKINNKDYLENFQAEAYSLKQLNSLANIASPNVTAIGTSLDKSFLVLDYIDFSKAKPMLWYQLGQQLAQMHYENRHGQFGWQHDNFIGSTIQPNHWSSNWTTFFSDQRIAWQLQLLSERSIMLGNIEHITQVCHDALLHHQVSPCLVHGDLWQGNTGFSGEKAMIFDPACYYGDREVDIAMTELFGHFPDDFYHGYQAEYPLDDGYEQRKLVYNFYHILNHANIFGGIYIDQAKATLSRIMSLPLHLEHHHHHH | failed |
| MTSHTPKFHRLAIAELRRETQDAVSMSFTIPDEIAADYTFAPGQYLTLRTTLDGEELRRSYSICSGPDDRELRIAVKKVNGGAFSGWALEQLKSGDQIEVMTPSGRFGVAHAPGESRVHVGFAAGSGITPLISIIRGILAREPNSRFFLFYGNRTTSNILFRQALQDLKDRFMARLAVFHVLSQEEQDLPILHGRLDRDRVTLLLRAMLPAQAIDHVFICGPTAMSEEIAATCAELGVPADRVHVERFVAGSGGKPRPTPVIAPQAPPAAIAALIIDGKRKEVPVAAGEAILDAALRAGIDLPYACKGGMCSTCRAKVVEGETRMDVNYSLEPWELDAGFVLTCQAHPVSDRVVIDYDAV | failed |
| MSFCKLVSFVLILHLLNSCLISCSSNDLSQIPKNFLSLAKREDFFDWMVGIRRRIHENPELGYEEVETSKLVKTELDKMGVSYKNPVAVTGVIGYVGTGHAPFVALRADMDALPIQEMVEWEHKSKIPGKMHACGHDAHTTMLLGAAKLLKEHQEELQEGGAGAKKIVEAGVLENVGAIFGLHVSNLLGLGQLSSREGLLMAGSGRFKATISGKGGHAALPQFAIDPVLAASNVILSLQHLVSREADPLDSQVVTVATFEGSDAFNVIPDSVTIGGTFRALLPKSFEQLKQRIVQVITTQASVNMCNATVDFLEDETPPFPPTVNNKTLHLFYKNVSVDMLGIENYVETLPVMVSEDFAFYQQAIPGHFSFVGMQNKSHSPMANPHSPFFEVNEELLPYGASLLASLATRYLLDSSSSPNKDEL | failed |
| MSGRGKVKSEPMKVVFINTQYVETDARSFKTVVQELTGKNAIVAAGPFDSPSAFDGRCYDGGSKIGEDTRQLHGGGGGGGRMGTTTEFDRLFKEMPHMEELYKLWSEY | failed |
| MQKEKAPIGLYFLLIAVMASWGFNVTMTKVLVSYFPTVTMTSFRIFTAAITVIIILFITKKLRLPTKREFGLIFLASIFNIVIHHFFLSNGLKLTTGTNAGLILGSAPIVVAIFSVVFLRERIGAWRALGFLAGIFGVSLVVLSNGTGISGISLGDIDIFIAMASQAFSFIIIKKLAGSMDTGLMTGYMLFLGSVMLFALSRFMEPGGVSELVAVHSWKLWLLFVVSAVVATAFGNFVYNYAVGKIGPSRSAIFMNFNPLFSLIGALLFLGEAIKIPQLVGFVFIIIGVLLGSGALMDLIYERKKTKVRDPEKLLEKEV | failed |
| MIQQLLVTFPPMLFGAQALLTLLLIKGDICPGQRGRLHKMLPAIGVLWLAVASLRIEAFMVVFAIFYFYSQVQTKKTREKGPLWALHLANGLAFAYVSIQVFEQPNWPASAAMAVMIFFLGASFSQLLLTIARSRLQAFHRILPVTGIVSGMLLVLATLFSSYQLDEATLASATQPILISLALLISTIVVWCWHIFTHKAPEKVQLSIALLLALASMTSLQGLFALAV | failed |
| MRMLKTGLLNFISVLVKVITGLFLNKIMALYVGPAGYALVSQFQNGINFITTFASGAINTGVTKYTAEYANDKGKTSDLFKCITLLAITCCSFFSLTIIVFSEYFSLKLLGTINYSGVIKWFAATLFLFVANSILVSIINGLKEFKLYVLINIFGSLFSLLFSGILIYFFNLKGALIAFATNQSIVFFMTFYLIISKKMVSLKSFIGMPSDFYFIKKLIQYALMAIVSAFCVIYMQIIIRTYIANHFGWVQAGIWDGVWRISSLYLMLVTVPLGVYYLPRLAELHTKSLLLREIKQGYLFLLPIIIISAIIIYYLRYFIIELLFSKSFVSMGDIIGWQLLGDIFKIGSWLLSYIMLSKALTKTYIITEITTALLFLGGVHYLSPLYGLKGVTLAYCITYFCYWIMMIVVIISYFKGNFRNE | failed |
| MHLPPKLALTTGVLLVALPLATPAWGQPPTPASPLVQQLNNGNWLDPKEAETLRDELYYQRAIHAYMTMLPALNVIGMRDGSEKVFGAGYNVLPVWKERMDARTMVPTPNADVIYSMSYLDLKKTGPLVVKAPANVIGMFTDFFQRTLTDVGAIGPDRARGGLYLILPPDYDGHVPSSYFVVKSPTYNVFLFFRTIMGQGKGKPDPAPAVKAAETTRVYPLWAEEKDIKPMEFPDGSGKHINMMYPVDQEYWTKLKEFVDYEPVSAIDPELRGVLASIGIVKGQPFKPTAREQELLKRAVETAPKMILAMRQLGREDKRHLYYKDRQWERAWAGATAEWMQDSYLDVNQRATFFQIAYSSAPAMVMRTTGAGSKYPFTARDANGEFLNGSATYKLRMPPDAPAALFWAVTAYNVTDGTMPETDQLMPSTNGYYDIPKQKDGSTEIWFGPQKPADVADAAFIKTIPNRNFLVTLRLYGAEDAFYDQTWKPDDVVKVKLEHHHHHH | not failed |
| MSFNVFSGSFGQIFKRSRKNSHEYKNENATFELIKSSILVAFSGALRIHLAFLLMYIQSNILVCIAGGLIIYTVYTLDRALGSEEDSVNRKELNGSNKKVGLTVSLLAFMVGTYILAGEEMLPLAFIPFVTGYLYSKGIKIGKFALKLKGGLGVKNIVVGLTWGIFIAGLAGSGCRNLIPVVLIFIFFGVKLFINSTIYDFKDIAGDTLAGINTLPVSLGVRKTRNLLTGMHLFSHLVIGVALIHGALAFEPLIVLYSFVCGLICIQKFTHPEYEEFPSQKMERTLLVDGESTSITGLRIAGYLIA | failed |
